# Reference: patent US20240158538A1 (HUMMINGBIRD BIOSCIENCE HOLDINGS PTE, published 2024)
# Where two headings read alike, the source gives them in different places.
# B1: anti-VISTA clone V4-C28 IgG1 (antibody, V domains shown)
# VH: QVQLQESGPGLVKPSDTLSLTCTVSGYSITSDYTWNWIRQTPGKGLEWIGHITYSGSVSYNPSLRSRVTISRDTSKNQFSLKLSSVTAADTATYSCARALYYPWYFDVWGTGTTVTVSS
# VL: EIVLTQSPATLSLSPGERATLSCRASSSVGYIHWYQQKPGQAPRPLIYATSYRATGIPARFSGSGSGTDNTLTISSLEPEDSAVYYCQQWSSYPPITFGGGTKLEVKR
# notes: Human IgG1/kappa
# B2: anti-VISTA clone V4-C31 IgG1 (antibody, V domains shown)
# VH: QVQLQESGPGLVKPSDTLSLTCTVSGYSITSDYTWNWIRQTPGKGLEWIGHITYSGSVSYNPSLRSRVTISRDTSKNQFSLKLSSVTAADTATYSCARALYYPWYFDVWGTGTTVTVSS
# VL: EIVLTQSPATLSLSPGERATLSCRASSSVGYIHWYQQKPGQAPRPLIYATYYRTTGIPARFSGSGSGTDNTLTISSLEPEDSAVYYCQQWSSYPPITFGGGTKLEVKR
# notes: Human IgG1/kappa
# B3: anti-VISTA clone V4-C30 IgG1 (antibody, V domains shown)
# VH: QVQLQESGPGLVKPSDTLSLTCTVSGYSITSDYTWNWIRQTPGKGLEWIGHITYSGSVSYNPSLRSRVTISRDTSKNQFSLKLSSVTAADTATYSCARALYYPWYFDVWGTGTTVTVSS
# VL: EIVLTQSPATLSLSPGERATLSCRASSSVGYIHWYQQKPGQAPRPLIYATYYRATGIPARFSGSGSGTDNTLTISSLEPEDSAVYYCQQWSSYPPITFGGGTKLEVKR
# notes: Human IgG1/kappa
# Key:
# [1] = biological target: T1, B7H6 (ELISA coat) (human, UniProt Q68D85 25-262, limits assumed); assay: ELISA, plate coated with B7H6
# T1 construct: Species read from the list 'human VISTA, PD-1, PD-L1, ...'; also called NCR3LG1
# T1 sequence (looked up): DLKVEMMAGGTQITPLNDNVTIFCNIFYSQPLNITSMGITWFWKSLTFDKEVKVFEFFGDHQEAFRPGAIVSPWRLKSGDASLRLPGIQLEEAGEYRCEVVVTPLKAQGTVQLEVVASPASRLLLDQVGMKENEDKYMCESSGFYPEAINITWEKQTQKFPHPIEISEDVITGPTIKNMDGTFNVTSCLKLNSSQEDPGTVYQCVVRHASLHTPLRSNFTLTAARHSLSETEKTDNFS
# [2] = biological target: T2, B7H7 (ELISA coat) (human, UniProt Q9UM44 23-344, limits assumed); assay: ELISA, plate coated with B7H7
# T2 construct: Species read from the list 'human VISTA, PD-1, PD-L1, ...'; also called HHLA2
# T2 sequence (looked up): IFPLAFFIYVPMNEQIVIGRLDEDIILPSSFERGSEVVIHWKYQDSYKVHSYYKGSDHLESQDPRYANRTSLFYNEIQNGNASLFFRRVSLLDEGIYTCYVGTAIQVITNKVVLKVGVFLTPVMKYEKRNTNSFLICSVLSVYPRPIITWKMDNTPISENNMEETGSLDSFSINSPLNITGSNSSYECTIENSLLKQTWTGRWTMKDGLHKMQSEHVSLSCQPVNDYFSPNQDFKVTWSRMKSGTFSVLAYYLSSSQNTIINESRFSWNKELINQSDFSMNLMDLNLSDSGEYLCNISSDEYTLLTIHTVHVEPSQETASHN
# [3] = biological target: T3, PD-1 (ELISA coat) (human, UniProt Q15116 25-167, limits assumed); assay: ELISA, plate coated with PD1
# T3 construct: Species read from the list 'human VISTA, PD-1, PD-L1, ...'
# [4] = biological target: T4, B7H4 (ELISA coat) (human, UniProt Q7Z7D3 25-258, limits assumed); assay: ELISA, plate coated with B7H4
# T4 construct: Species read from the list 'human VISTA, PD-1, PD-L1, ...'; also called VTCN1
# T4 sequence (looked up): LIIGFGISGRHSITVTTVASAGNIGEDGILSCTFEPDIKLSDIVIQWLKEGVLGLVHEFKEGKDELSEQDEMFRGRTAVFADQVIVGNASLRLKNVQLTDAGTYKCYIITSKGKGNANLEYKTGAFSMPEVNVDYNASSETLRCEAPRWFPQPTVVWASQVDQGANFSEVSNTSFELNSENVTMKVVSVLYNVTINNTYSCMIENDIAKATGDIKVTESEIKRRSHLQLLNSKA
# [5] = biological target: T5, human PD-L1 (ELISA coat) (human, UniProt Q9NZQ7 19-239); assay: ELISA, plate coated with B7H1 (PDL1)
# [6] = biological target: T6, human VISTA polypeptide (ELISA coat) (human, UniProt Q9H7M9 33-194); assay: ELISA, plate coated with B7H5 (VISTA)
# T6 construct: Recombinant protein (Sino Biological) coated on ELISA plates; construct not described
# [7] = biological target: T7, CTLA4 (ELISA coat) (human, UniProt P16410 36-162, limits assumed); assay: ELISA, plate coated with CTLA4
# T7 construct: Species read from the list 'human VISTA, PD-1, PD-L1, ...'
# [8] = biological target: T8, B7H3 (ELISA coat) (human, UniProt Q5ZPR3 29-461, limits assumed); assay: ELISA, plate coated with B7H3
# T8 construct: Species read from the list 'human VISTA, PD-1, PD-L1, ...'; also called CD276
# T8 sequence (looked up): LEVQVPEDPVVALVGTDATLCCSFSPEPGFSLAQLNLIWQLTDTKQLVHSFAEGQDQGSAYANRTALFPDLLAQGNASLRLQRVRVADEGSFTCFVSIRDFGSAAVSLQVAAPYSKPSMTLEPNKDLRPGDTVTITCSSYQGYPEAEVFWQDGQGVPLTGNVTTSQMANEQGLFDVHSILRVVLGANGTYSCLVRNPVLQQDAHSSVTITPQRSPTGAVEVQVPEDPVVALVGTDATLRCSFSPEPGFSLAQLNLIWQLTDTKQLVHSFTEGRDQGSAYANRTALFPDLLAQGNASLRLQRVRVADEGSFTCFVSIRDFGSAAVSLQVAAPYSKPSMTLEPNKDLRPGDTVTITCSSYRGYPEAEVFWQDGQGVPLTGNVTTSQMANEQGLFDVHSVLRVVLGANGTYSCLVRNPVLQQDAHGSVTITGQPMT
# [9] = biological target: T2, B7H7 (ELISA coat); assay: ELISA, plate coated with B7H7; remark: listed apart in the source
# [10] = biological target: T8, B7H3 (ELISA coat); assay: ELISA, plate coated with B7H3; remark: listed apart in the source
# [11] = biological target: T7, CTLA4 (ELISA coat); assay: ELISA, plate coated with CTLA4; remark: listed apart in the source
# [12] = biological target: T4, B7H4 (ELISA coat); assay: ELISA, plate coated with B7H4; remark: listed apart in the source
# [13] = biological target: T3, PD-1 (ELISA coat); assay: ELISA, plate coated with PD1; remark: listed apart in the source
# [14] = biological target: T1, B7H6 (ELISA coat); assay: ELISA, plate coated with B7H6; remark: listed apart in the source
# [15] = biological target: T5, human PD-L1 (ELISA coat); assay: ELISA, plate coated with B7H1 (PDL1); remark: listed apart in the source
# [16] = biological target: T4, B7H4 (ELISA coat); assay: ELISA, plate coated with B7H4; remark: listed apart in the source
# [17] = biological target: T2, B7H7 (ELISA coat); assay: ELISA, plate coated with B7H7; remark: listed apart in the source
# [18] = biological target: T8, B7H3 (ELISA coat); assay: ELISA, plate coated with B7H3; remark: listed apart in the source
# [19] = biological target: T1, B7H6 (ELISA coat); assay: ELISA, plate coated with B7H6; remark: listed apart in the source
# [20] = biological target: T7, CTLA4 (ELISA coat); assay: ELISA, plate coated with CTLA4; remark: listed apart in the source
# [21] = biological target: T3, PD-1 (ELISA coat); assay: ELISA, plate coated with PD1; remark: listed apart in the source
# [22] = biological target: T5, human PD-L1 (ELISA coat); assay: ELISA, plate coated with B7H1 (PDL1); remark: listed apart in the source
# T5 sequence (Q9NZQ7 19-239 limits assumed): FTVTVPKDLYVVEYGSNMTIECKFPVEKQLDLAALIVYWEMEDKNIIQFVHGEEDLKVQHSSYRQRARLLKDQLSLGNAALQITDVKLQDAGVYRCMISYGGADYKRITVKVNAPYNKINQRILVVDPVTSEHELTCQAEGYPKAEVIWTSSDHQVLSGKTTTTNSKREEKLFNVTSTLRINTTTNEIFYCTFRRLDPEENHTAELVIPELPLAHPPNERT
# T3 sequence (Q15116 25-167 limits assumed): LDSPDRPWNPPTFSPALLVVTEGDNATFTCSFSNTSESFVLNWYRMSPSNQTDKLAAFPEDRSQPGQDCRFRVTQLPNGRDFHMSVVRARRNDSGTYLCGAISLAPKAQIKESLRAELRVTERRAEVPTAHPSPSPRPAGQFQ
# T7 sequence (P16410 36-162 limits assumed): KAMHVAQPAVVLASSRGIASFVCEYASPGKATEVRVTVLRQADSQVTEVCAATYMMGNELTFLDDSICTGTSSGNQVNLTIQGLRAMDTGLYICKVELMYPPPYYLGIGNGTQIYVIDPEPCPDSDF
binder,measurement,setting,value
B1,binding result,[1],no binding (tested: log -7.5 (about 3e-8 M))
same,binding result,[2],no binding (tested: log -7.5 (about 3e-8 M))
same,binding result,[3],no binding (tested: log -7.5 (about 3e-8 M))
same,binding result,[4],no binding (tested: log -7.5 (about 3e-8 M))
same,binding result,[5],no binding (tested: log -7.5 (about 3e-8 M))
same,EC50 (read off the curve),[6],~0.02 nM
same,binding result,[7],no binding (tested: log -7.5 (about 3e-8 M))
same,binding result,[8],no binding (tested: log -7.5 (about 3e-8 M))
B2,binding result,[9],no binding (tested: log -7.5 (about 3e-8 M))
same,binding result,[10],no binding (tested: log -7.5 (about 3e-8 M))
same,binding result,[11],no binding (tested: log -7.5 (about 3e-8 M))
same,binding result,[12],no binding (tested: log -7.5 (about 3e-8 M))
same,binding result,[13],no binding (tested: log -7.5 (about 3e-8 M))
same,binding result,[14],no binding (tested: log -7.5 (about 3e-8 M))
same,binding result,[15],no binding (tested: log -7.5 (about 3e-8 M))
B3,binding result,[16],no binding (tested: log -7.5 (about 3e-8 M))
same,binding result,[17],no binding (tested: log -7.5 (about 3e-8 M))
same,binding result,[18],no binding (tested: log -7.5 (about 3e-8 M))
same,binding result,[19],no binding (tested: log -7.5 (about 3e-8 M))
same,binding result,[20],no binding (tested: log -7.5 (about 3e-8 M))
same,binding result,[21],no binding (tested: log -7.5 (about 3e-8 M))
same,binding result,[22],no binding (tested: log -7.5 (about 3e-8 M))
